Data from paper PMC7327021.

Target: CTD1, C-terminal domain of major ampullate spidroin 1 of Latrodectus hesperus (Latrodectus hesperus)
Experiment: non-reducing SDS-PAGE; non-reducing SDS-PAGE of fractions of the Ni-IMAC purification of CTD1; disulphide-linked dimer

stoichiometry N: 2
Substance: CTD1, C-terminal domain of major ampullate spidroin 1 of Latrodectus hesperus (domain or fragment)
